From PMC5673899, “Structural basis for receptor recognition of pollen tube attraction peptides” (Nature Communications, 2017) come the findings set out here.

One experiment concerns MIK2^LRR. The experiment is described as follows: ITC, AtLURE1.2 titrated into MIK2^LRR. Type of experiment: binding, Arabidopsis. The conditions noted are these: 25 °C, 200 mM HEPES pH 7.0, 100 mM NaCl, as for MIK1LRR (0.5 mM AtLURE1.2 into 0.05 mM). An excerpt: The genes of AtPRK3 ^LRR (residues 1–241), AtPRK4 ^LRR (residues 1–277), AtPRK5 ^LRR (residues 1–279), AtPRK6 ^LRR (residues 1–262), MIK1 ^LRR (residues 1–633), MIK2 ^LRR (residues 1–707) were amplified from Arabidopsis cDNA library by PCR and cloned into pFastBac-1 vector with a C-terminal 6 × His-tag. Their identities were confirmed by sequencing. The mature form of AtLURE1.1 (residues 20–94), AtLURE1.2 (residues 20–90), AtLURE1.3 (residues 21–91), and AtLURE1.4 (residues 20–90) were cloned into pFastBac-1 vector, with a modified N-terminal hemolin signal peptide and 6 × His-SUMO tag. Point mutation constructs were generated by QuickChange Site-Directed Mutagenesis Kit (Strategene). All the proteins were expressed using the Bac-to-Bac baculovirus expression system (Invitrogen) in High Five cells at 22 °C. One liter of High Five cells (2.0 × 10^6 cells mL^−1) cultured in the medium from Expression Systems was infected with 25 ml recombinant baculovirus and the media was collected after 72 h of infection. Secreted LRR proteins were purified using Ni-NTA (Novagen) and size-exclusion chromatography (Hiload 200, GE Healthcare) in buffer containing 10 mM Bis-Tris pH 6.0 and 100 mM NaCl. […]
Supplementary Figure 6: Binding affinity between MIK1LRR, MIK2LRR and AtLURE1.2 was not detected in ITC assay. […]

The subject of experiment [1] is prk6 pollen tubes transformed with PRK6 D234A. The experiment in a line: Gelatin-beads assay, prk6 pollen tubes transformed with D234A PRK6. It counts as cell-based, Arabidopsis. The conditions noted are these: beads with 250 nM wild-type AtLURE1.2; 10–23 pollen tubes per assay, three assays. As for the experimental part:
(§1) Attraction activities of mutant AtLURE1.2 peptides were examined for semi-in-vivo pollen tubes growing through cut, pollinated pistils by gelatin-beads assay and wavy assay, [20]. For the gelatin-beads assay, pollen tubes were grown on solid pollen germination medium poured into a mold made with 1-mm thick silicone rubber and cover glasses. After hand-pollination, the topside cover glass was removed and the medium was covered with hydrated silicone oil (KF-96–100CS; Shin-Etsu). Attraction of pollen tubes toward the peptide was evaluated using AtLURE1 peptide containing gelatine beads under an inverted microscope (IX71, Olympus) equipped with a micro-manipulator (Narishige). For the AtLURE1-responsive wavy assay, the purified AtLURE1.2 peptide was added to solid pollen germination medium, which was melted at 70 °C and then cooled to a certain degree. The mixture was mixed by vortexing and poured into the mold. Pollen tubes of each genotype were grown through cut styles, as mentioned above. Each peptide (25 μM in 10 mM Bis-Tris (pH 6.0) and 100 mM NaCl) was diluted to 250 nM by cultivation medium in both assays. To examine reactivity of PRK6 mutants to AtLURE1.2, constructs for PRK6 mutants, D234A, N239A, and ΔN239I240, were generated by site-directed mutagenesis from a wild-type PRK6 vector, pPZP221-pPRK6::PRK6-mRuby2 (ref. [20]). […]

For experiment [2], the system named is prk6 pollen tubes transformed with PRK6 ΔN239I240. The experiment is described as follows: Wavy assay, prk6 pollen tubes transformed with ΔN239I240 PRK6. To be noted: 250 nM wild-type AtLURE1.2 in medium. Type of experiment: cell-based, Arabidopsis. As for the experimental part:
as §1, with “assays.” for “assays. To examine reactivity of PRK6 mutants to AtLURE1.2, constructs for PRK6 mutants, D234A, N239A, and ΔN239I240, were generated by site-directed mutagenesis from a wild-type PRK6 vector, pPZP221-pPRK6::PRK6-mRuby2 (ref. [20]).”
pollen tubes. Fluorescence is from mRuby2 fused to the C-terminal of PRK6 receptors, showing that all of mutant PRK6 receptors localize normally to the plasma membrane of the pollen tube tip. […]

“Also recorded” adds a separate entry of the source.

B1: AtLURE1.2: mature form of AtLURE1.2 (residues 20–90), defensin-like cysteine-rich peptide expressed in insect cells (protein)
chain: TLINGSSDEERTYSFSPTTSPFDPRSLNQELKIGRIGYCFDCARACMRRGKYIRTCSFERKLCRCSISDIK
modifications: left off: His6, N-terminal, cleaved | SUMO, N-terminal, cleaved
notes: mature form of AtLURE1.2 (residues 20–90), defensin-like cysteine-rich peptide expressed in insect cells
Take B1: the “binding in ITC” value with MIK2^LRR is recorded as “not detected; also recorded: no obvious heat was produced; also recorded: none of the purified AtPRK3^LRR, MIK1^LRR or MIK2^LRR proteins showed detectable interaction”. Also, in experiment [1], the pollen tube attraction result was “significantly lower than those in wild-type and N239A PRK6 pollen tubes; also recorded: significantly reduced”. Moreover, the “wavy and branched pollen tube behavior” value in experiment [2] is “branched behavior is not observed; also recorded: greatly compromised”.
